Data from the Human Domainome abundance scans (Beltran et al. 2025).
± gives the uncertainty stated by the source.

B1: Ventral anterior homeobox 1, residues 102 to 157; numbered along this chain, Q5SQQ9 (parent)
chain: RTRTSFTAEQLYRLEMEFQRCQYVVGRERTELARQLNLSETQVKVWFQNRRTKQKK

Variants of: B1
Assay: abundance fitness (aPCA) (normalised: wild type 0, dead -1); higher = more abundant; growth selection in yeast, the domain comes from the species named
Conditions: Homo sapiens

Abundance fitness of substitutions, site by site:
N49: R -0.26 ± 0.11; L -0.046 ± 0.12; K -0.022 ± 0.18; T 0.072 ± 0.18; I -0.069 ± 0.27; C -0.283 ± 0.25; P -0.929 ± 0.31; Q -0.038 ± 0.21; G -0.047 ± 0.1; E 0.297 ± 0.15; F -0.609 ± 0.48; H -0.358 ± 0.27; V -0.1 ± 0.12; M -0.442 ± 0.2; S -0.277 ± 0.14; D -0.019 ± 0.32
T30: N -0.097 ± 0.34; D -0.468 ± 0.36; R -0.429 ± 0.16; G -0.215 ± 0.14; H -0.261 ± 0.34; A -0.102 ± 0.16; I -0.211 ± 0.21; V -0.064 ± 0.16; M -0.225 ± 0.3; E 0.018 ± 0.23; K -0.19 ± 0.37; W -0.117 ± 0.32; P -0.677 ± 0.3; L -0.427 ± 0.15; Q -0.329 ± 0.39
L32: Q -0.959 ± 0.34; R -0.826 ± 0.2; A -0.791 ± 0.34; V -0.542 ± 0.19; C -0.777 ± 0.39; M -0.314 ± 0.3; G -1.21 ± 0.43; K -0.641 ± 0.42; W -1.04 ± 0.27
Q35: H -0.167 ± 0.26; T -0.205 ± 0.23; N -0.206 ± 0.24; K 0.093 ± 0.18; S 0.037 ± 0.12; G -0.182 ± 0.1; I -0.236 ± 0.2; R -0.028 ± 0.11; C -0.08 ± 0.14; V -0.265 ± 0.13; Y -0.414 ± 0.2; W -0.304 ± 0.17; D -0.005 ± 0.19; L -0.135 ± 0.14; F -0.292 ± 0.21; E -0.032 ± 0.17; A 0.052 ± 0.13; M -0.087 ± 0.15
V45: R -0.156 ± 0.095; T 0.126 ± 0.16; I -0.3 ± 0.22; S 0.158 ± 0.12; A 0.02 ± 0.11; G -0.159 ± 0.084; M -0.148 ± 0.27; P -0.545 ± 0.22; Y -0.046 ± 0.21; N -0.248 ± 0.27; W 0.015 ± 0.1; F -0.03 ± 0.26; Q -0.061 ± 0.18; K -0.258 ± 0.18; L 0.083 ± 0.13; H -0.021 ± 0.21; D 0.185 ± 0.16
S39: F -0.435 ± 0.19; I -1.08 ± 0.44; L -0.591 ± 0.15; T -0.218 ± 0.17; Y -0.649 ± 0.34; D 0.264 ± 0.18; Q -0.313 ± 0.15; M -0.595 ± 0.2; N 0.063 ± 0.25; H -0.334 ± 0.17; R -0.417 ± 0.11; E -0.115 ± 0.18; V -0.488 ± 0.16; C -0.266 ± 0.16; W -0.959 ± 0.24; P 0.033 ± 0.19; K -0.25 ± 0.2; G -0.375 ± 0.11
Q42: A 0.021 ± 0.12; N -0.257 ± 0.31; R -0.223 ± 0.11; K -0.473 ± 0.3; I 0.007 ± 0.2; M -0.252 ± 0.19; L -0.137 ± 0.15; Y 0.053 ± 0.5; P -0.824 ± 0.37; D 0.028 ± 0.33; F -0.266 ± 0.45; V -0.153 ± 0.12; E 0.183 ± 0.16; T 0.163 ± 0.19; G -0.603 ± 0.13; W -0.397 ± 0.23; S -0.364 ± 0.22; C -0.563 ± 0.49
E28: N -0.459 ± 0.27; S -0.338 ± 0.15; P -0.171 ± 0.22; Q -0.394 ± 0.19; T -0.247 ± 0.17; R -0.596 ± 0.13; Y -0.661 ± 0.4; W -0.483 ± 0.19; V -0.419 ± 0.12
R34: I -0.325 ± 0.48; A 0.179 ± 0.15; V -0.074 ± 0.12; Y -0.655 ± 0.41; D -0.203 ± 0.36; S -0.061 ± 0.17; P -0.907 ± 0.49; W -0.42 ± 0.33; M -0.256 ± 0.26; L -0.273 ± 0.18; E -0.235 ± 0.24; Q -0.361 ± 0.3; C -0.395 ± 0.4; K -0.197 ± 0.3
E31: I -0.399 ± 0.28; S -0.386 ± 0.15; F -0.795 ± 0.32; V -0.315 ± 0.14; C -0.683 ± 0.22; T -0.243 ± 0.19; P -0.662 ± 0.24; Q -0.347 ± 0.17; H -0.468 ± 0.3; Y -1.04 ± 0.43; L -0.5 ± 0.15; N 0.028 ± 0.41; W -0.721 ± 0.21; K -0.592 ± 0.21; G -0.454 ± 0.12; D -0.234 ± 0.29; R -0.657 ± 0.12
A33: D -0.938 ± 0.3; T -0.557 ± 0.28; Q -0.989 ± 0.38; H -0.925 ± 0.38; W -0.483 ± 0.19; S -0.115 ± 0.12; L -0.693 ± 0.17; C -0.295 ± 0.16; G -0.375 ± 0.092; E -0.905 ± 0.3; V -0.786 ± 0.17; N -0.897 ± 0.35; P -0.997 ± 0.42; R -0.992 ± 0.18; Y -0.692 ± 0.25
L38: C -0.186 ± 0.16; M -0.112 ± 0.15; F -0.72 ± 0.39; P -1.02 ± 0.25; I -0.307 ± 0.33; K -0.773 ± 0.24; T -0.411 ± 0.16; G -0.822 ± 0.11; D -0.818 ± 0.24; H -0.854 ± 0.43; W -0.861 ± 0.17; Q -0.91 ± 0.2; R -0.576 ± 0.11; V 0.027 ± 0.094; S -0.321 ± 0.14; A -0.253 ± 0.11
Q48: Y -0.298 ± 0.28; R -0.172 ± 0.15; H -0.505 ± 0.39; M -0.122 ± 0.3; E -0.193 ± 0.31; V -0.115 ± 0.18; C -0.051 ± 0.29; T -0.076 ± 0.26; W -0.619 ± 0.27; L -0.051 ± 0.2; I -0.284 ± 0.46; G -0.314 ± 0.15; D -0.11 ± 0.44; S -0.111 ± 0.16; K 0.142 ± 0.45; A -0.167 ± 0.2
L36: K -1.18 ± 0.42; H -0.569 ± 0.22; P -0.711 ± 0.22; T -0.264 ± 0.17; S -0.687 ± 0.13; A -0.601 ± 0.12; D -0.643 ± 0.3; Q -0.545 ± 0.18; E -0.983 ± 0.26; N -0.935 ± 0.43; Y -0.858 ± 0.23; F -0.741 ± 0.21; C -0.165 ± 0.16; M -0.184 ± 0.18; W -0.696 ± 0.15; R -0.881 ± 0.13; V -0.173 ± 0.089; G -0.916 ± 0.12
W46: F -0.406 ± 0.37; G -0.778 ± 0.14; S -0.627 ± 0.23; L -0.717 ± 0.2; I -0.807 ± 0.4; C -0.909 ± 0.32; R -0.844 ± 0.14; V -0.63 ± 0.19; M -0.919 ± 0.33; Q -0.958 ± 0.28; T -0.922 ± 0.3; K -1.11 ± 0.45
E40: R -0.57 ± 0.12; I -0.557 ± 0.26; P -0.318 ± 0.17; H -1.01 ± 0.38; M -0.852 ± 0.25; Y -0.712 ± 0.41; V -0.315 ± 0.12; G -0.413 ± 0.098; C -0.226 ± 0.22; Q -0.507 ± 0.19; D -0.128 ± 0.16; K -0.676 ± 0.35; A -0.215 ± 0.16; L -0.711 ± 0.15; S -0.283 ± 0.14; W -0.736 ± 0.22
K44: L -0.175 ± 0.12; F -0.464 ± 0.31; H -0.26 ± 0.24; Q -0.091 ± 0.14; N 0.002 ± 0.16; A 0.038 ± 0.12; E 0.048 ± 0.15; G -0.049 ± 0.11; R -0.22 ± 0.086; D 0.129 ± 0.23; P -0.94 ± 0.22; S 0.106 ± 0.13; W -0.167 ± 0.12; Y -0.271 ± 0.2; C -0.069 ± 0.16; V -0.032 ± 0.11; M -0.079 ± 0.14
T41: A 0.032 ± 0.12; H -0.027 ± 0.19; E 0.106 ± 0.13; S 0.006 ± 0.12; V -0.104 ± 0.1; D 0.105 ± 0.18; R -0.336 ± 0.1; G 0.03 ± 0.096; W -0.12 ± 0.12; N -0.127 ± 0.35; Y -0.2 ± 0.19; K -0.381 ± 0.18; C 0.164 ± 0.17; L 0.024 ± 0.11; P -0.152 ± 0.16; M 0.095 ± 0.16; Q 0.227 ± 0.19; I -0.5 ± 0.3; F -0.129 ± 0.19
F47: R -0.873 ± 0.18; Q -0.767 ± 0.25; T -0.792 ± 0.24; H -0.754 ± 0.35; M -0.228 ± 0.17; W -0.651 ± 0.25; Y -0.376 ± 0.34; C -0.743 ± 0.29; V -0.787 ± 0.17; G -0.976 ± 0.14; S -0.762 ± 0.21; D -0.674 ± 0.23; I -0.663 ± 0.29; A -1.02 ± 0.17; K -0.885 ± 0.39; P -0.836 ± 0.25; E -1.04 ± 0.3
R50: L -0.925 ± 0.2; Q -0.098 ± 0.17; I -1.09 ± 0.44; E 0.009 ± 0.19; H -0.624 ± 0.43; M -0.034 ± 0.16; A -0.163 ± 0.13; N -0.424 ± 0.35; K -0.041 ± 0.17; P -1.02 ± 0.29; G -0.832 ± 0.13
N37: K -0.092 ± 0.22; W -0.605 ± 0.2; S -0.239 ± 0.19; E -0.033 ± 0.26; C -0.037 ± 0.21; A -0.211 ± 0.23; L -0.307 ± 0.18; V -0.464 ± 0.29; D -0.049 ± 0.2; G -0.04 ± 0.12; R -0.134 ± 0.12; T -0.254 ± 0.39; Q 0.06 ± 0.27; M -0.536 ± 0.4; F -0.183 ± 0.42
V43: C -0.508 ± 0.23; M -0.838 ± 0.4; W -0.871 ± 0.23; A -0.679 ± 0.28; R -0.793 ± 0.18; D -0.691 ± 0.37; S -0.561 ± 0.22; L -0.166 ± 0.14; F -0.765 ± 0.32; P -0.723 ± 0.33; Q -0.817 ± 0.43
